B1: PSA membrane-bound: PSA amino acids 25-261 linked to human PSMA transmembrane domain (aa 15-54), SEQ ID NO: 19 (protein)
chain: MASARRPRWLCAGALVLAGGFFLLGFLFGWFIKSSNEATNITPGIVGGWECEKHSQPWQVLVASRGRAVCGGVLVHPQWVLTAAHCIRNKSVILLGRHSLFHPEDTGQVFQVSHSFPHPLYDMSLLKNRFLRPGDDSSHDLMLLRLSEPAELTDAVKVMDLPTQEPALGTTCYASGWGSIEPEEFLTPKKLQCVDLHVISNDVCAQVHPQKVTKFMLCAGRWTGGKSTCSGDSGGPLVCNGVLQGITSWGSEPCALPERPSLYTKVVHYRKWIKDTIVANP
B2: PSA secreted: native full length human PSA (amino acids 1-261), SEQ ID NO: 15 (protein, listed as Homo sapiens)
chain: MASWVPVVFLTLSVTWIGAAPLILSRIVGGWECEKHSQPWQVLVASRGRAVCGGVLVHPQWVLTAAHCIRNKSVILLGRHSLFHPEDTGQVFQVSHSFPHPLYDMSLLKNRFLRPGDDSSHDLMLLRLSEPAELTDAVKVMDLPTQEPALGTTCYASGWGSIEPEEFLTPKKLQCVDLHVISNDVCAQVHPQKVTKFMLCAGRWTGGKSTCSGDSGGPLVCNGVLQGITSWGSEPCALPERPSLYTKVVHYRKWIKDTIVANP

Tested on: PSA
Assay: Sandwich ELISA, anti-PSA antibody response in vaccinated mice
Assay type: in vivo, mouse
Settings: Table 15; for # of positive: mice with anti-PSA antibody response / mice tested

Row | Molecule | ELISA (OD = 1.0) Average (SD) (anti-PSA antibody titer at OD of 1.0) | # of positive
1 | B1 | 4838 (835) | 6/6
2 | B2 | – | 2/6
